Assays:
[1] = biological target: the molecule itself; test: SEC-MALS; Superdex 200 Increase, 20 mM Na-Hepes pH 7.0, 200 mM NaCl; DNAJC12 3 mg/mL, TH, TH:DNAJC12 complex, TH(1-158) and TH(155-497) 2 mg/mL
DNAJC12-F193G = biological target: T1, DNAJC12-F193G (human, UniProt Q9UKB3-1 1-198, F193G); test: BLI; biotinylated TH or TH variant immobilised on streptavidin sensors; DNAJC12 or variant 0.01-4 μM in solution; PBS, 0.02% Tween-20, 0.5 mg/mL BSA, 25 °C; responses fitted to a one-site hyperbola; conditions: both partners purified
T1 construct: source: E. coli BL21-CodonPlus(DE3)-RIL, purified (HisTrap, TEV cleavage, TALON, amylose, SEC); not shown: His6, N-terminal, cleaved; MBP, N-terminal, cleaved
T1 sequence (Q9UKB3 whole entry F193G): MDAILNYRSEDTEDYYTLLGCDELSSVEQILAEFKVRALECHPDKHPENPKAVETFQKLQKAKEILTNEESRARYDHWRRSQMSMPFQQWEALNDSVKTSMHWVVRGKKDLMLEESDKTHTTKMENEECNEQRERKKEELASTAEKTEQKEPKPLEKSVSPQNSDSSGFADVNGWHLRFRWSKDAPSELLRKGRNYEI

Row | Kd (DNAJC12-F193G) [nM] | Binder | stoichiometry N [1]
1 |  | TH-R202H (TH-p.R202H), variant associated with TH deficiency (enzyme, biotinylated with EZ-Link NHS-PEG4-Biotin for BLI only) not shown | 4
2 |  | TH catalytic and oligomerization domains, TH(155-497) (domain or fragment, biotinylated with EZ-Link NHS-PEG4-Biotin for BLI only) not shown | 4
3 |  | TH regulatory domain, TH(1-158) (domain or fragment, human, UniProt P07101-3 1-158, looked up, biotinylated with EZ-Link NHS-PEG4-Biotin for BLI only) MPTPDATTPQAKGFRRAVSELDAKQAEAIMSPRFIGRRQSLIEDARKEREAAVAAAAAAVPSEPGDPLEAVAFEEKEGKAVLNLLFSPRATKPSALSRAVKVFETFEAKIHHLETRPAQRPRAGGPHLEYFVRLEVRRGDLAALLSGVRQVSEDVRSP | 2
4 | 1180 | Tyrosine hydroxylase, wild-type (hTH1) (enzyme, biotinylated with EZ-Link NHS-PEG4-Biotin for BLI only) not shown | 
